Data from US20230321189A1, “THERAPEUTIC AGENTS, PHARMACEUTICAL COMPOSITIONS, AND ASSOCIATED BIOMARKERS BASED ON TRK-B” (INSTITUTO DE MEDICINA MOLECULAR JOÃO LOBO ANTUNES, priority 2020, published 2023).
Entries after “also recorded” stand apart in the source; their conditions may differ. Where no end group is shown, it is not given here.

Legend:
[1] = tested on: bEnd.3 brain endothelioma cells; settings: TAT-TrkB-6-FAM 5 μM apical; 1 h, 4 h and 24 h
Experimental: (§1) To evaluate the ability of the TAT-TrkB peptide to translocate the BEB, the inventors used a well-established in vitro model^15. It comprises a transwell system with an insert in which bEnd.3 brain endothelioma cells (ATTCC-CRL-2299, Lot. 59618606) are cultured for 9 days. In this model, the apical chamber replicates the blood compartment, while the basolateral chamber replicates the brain compartment (FIG. 7a). For these experiments, 6-FAM was fused to the N-terminal of the TAT-TrkB peptide, in order to detect the peptide by fluorescence. The TAT-TrkB-6-FAM peptide (5 μM, diluted in DMEM without phenol red) was delivered to the apical compartment. After incubation times of 1 h, 4 h and 24 h, in different inserts, medium from the apical and basolateral compartments was collected and fluorescence measured at 495 nm excitation and 517 nm emission wavelengths using the Varioskan LUX Multimode microplate reader (Thermo Scientific, Rockford, IL, USA ThermoFisher Scientific). Peptide translocation was quantified as the fluorescence detected in the basolateral compartment normalized to the sum of the fluorescence detected in both compartments. […] For these, FD4 fluorescent probe (diluted in DMEM without phenol red to a final absorbance below 0.1) was added to the apical compartment of the same inserts and incubated for 2 h. […]

[2] = tested on: bEnd.3 brain endothelioma cells; experiment: BEB in vitro integrity assay (FD4 probe); assay type: in vitro ADME; settings: FD4 added after each TAT-TrkB translocation assay, 2 h
Experimental: as §1

TrkB-FL [3] = biological target: T1, TrkB-FL (Rattus norvegicus, UniProt Q63604); experiment: Aβ-driven TrkB-FL cleavage in primary neuronal cultures (Western blot); assay type: cell-based; parameters: Western-blot of neuronal cultures; endogenous in cells; host or cells: primary cortical neuronal cultures from E17-E18 embryos; settings: DIV8 neuronal cultures, peptide without linker, 20 μM (1, 5, 20 and 50 μM)
Experimental: Primary neuronal cultures were prepared as routinely in the lab^6. Briefly, animals were deeply anesthetized with isoflurane ([…], Barcelona, Spain) in an anaesthesia chamber before being sacrificed by decapitation. Embryos (E17-E18) were rapidly removed from the uterus and brains were dissected and placed in cold Ca^2+- and Mg^2+-free Hank's Balanced Salt Solution (HBSS) (Gibco, Paisley, UK). Cerebral cortex was isolated, mechanically fragmented and digested with 0.025% (wt/vl) trypsin solution (Gibco, Paisley, UK) in HBSS for 15 min at 37° C. After digestion, cells were precipitated by centrifugation at 1200 rpm. The supernatant was removed and 20% Fetal Bovine Serum (FBS) (Gibco, Paisley, UK) was added to HBSS. […] To obtain single cells and avoid cellular clusters or tissue fragments, the suspension was filtered with a nylon filter (BD FalconTM Cell Strainer 70 μM, Thermo Fisher Scientific, Waltham, MA, USA) and cell density was determined by counting cells in a 0.4% trypan blue solution using a hemacytometer. […] Finally, immunoreactivity was detected using the ECL system (ECL chemiluminescence detection system, GE Healthcare), an appropriate exposure time in a ChemiDoc (Bio-Rad, XRS^+) and quantified by the digital densitometry tool of ImageJ 1.45 software (Bethesda, MD, USA). […]

TrkB-FL [4] = biological target: T1, TrkB-FL; experiment: Calpain in vitro assay, adult rat brain cortex homogenate (Western blot); assay type: biochemical; parameters: rat cortical tissue or neuronal cultured cells were homogenized in Radio Immuno Precipitation Assay (RIPA) buffer; from tissue; host or cells: adult rat brain cortex homogenate (100 μg protein); settings: peptide without linker 20 μM, m-calpain 1 or 2 EU, CaCl2 2 mM
Experimental: For calpain enzymatic assays, rat cortical tissue or neuronal cultured cells were homogenized in Radio Immuno Precipitation Assay (RIPA) buffer, containing 50 mM Tris-HCl [pH=7.5], 150 mM NaCl, 5 mM ethylenediamine tetra-acetic acid, 0.1% sodium dodecyl sulfate (SDS), 1% [v/vl] Triton X-100, protease inhibitors (Roche, Penzberg, Germany) and phosphatase inhibitors (10 mM NaF and 5 mM Na3VO4). For tissue homogenization, Vibracell VC250 Ultrasonic Liquid Processor was used (Sonics & Materials, Inc, CT, USA). Protein concentration was measured using Bio-Rad DC reagent (Bio-Rad Laboratories, Berkeley, CA, USA) after homogenates clarification by centrifugation (16,000 g, 4° C., 10 min). The purified rat m-calpain (1 or 2 enzymatic units, EU) (Calbiochem, San Diego, CA, USA) was incubated for 30 min at 25° C. in a 100 μL final volume of lysis buffer containing the homogenate protein (100 μg for rat brain cortex experiments and 65 μg for neuronal cultured cells), 2 mM of CaCl2 and TAT-TrkB peptide (5, 20 or 50 μM). […] Finally, immunoreactivity was detected using the ECL system (ECL chemiluminescence detection system, GE Healthcare), an appropriate exposure time in a ChemiDoc (Bio-Rad, XRS^+) and quantified by the digital densitometry tool of ImageJ 1.45 software (Bethesda, MD, USA). […]

[5] = listed as TAT-TrkB without a linker sequence

T1 sequence (Q63604 32-821): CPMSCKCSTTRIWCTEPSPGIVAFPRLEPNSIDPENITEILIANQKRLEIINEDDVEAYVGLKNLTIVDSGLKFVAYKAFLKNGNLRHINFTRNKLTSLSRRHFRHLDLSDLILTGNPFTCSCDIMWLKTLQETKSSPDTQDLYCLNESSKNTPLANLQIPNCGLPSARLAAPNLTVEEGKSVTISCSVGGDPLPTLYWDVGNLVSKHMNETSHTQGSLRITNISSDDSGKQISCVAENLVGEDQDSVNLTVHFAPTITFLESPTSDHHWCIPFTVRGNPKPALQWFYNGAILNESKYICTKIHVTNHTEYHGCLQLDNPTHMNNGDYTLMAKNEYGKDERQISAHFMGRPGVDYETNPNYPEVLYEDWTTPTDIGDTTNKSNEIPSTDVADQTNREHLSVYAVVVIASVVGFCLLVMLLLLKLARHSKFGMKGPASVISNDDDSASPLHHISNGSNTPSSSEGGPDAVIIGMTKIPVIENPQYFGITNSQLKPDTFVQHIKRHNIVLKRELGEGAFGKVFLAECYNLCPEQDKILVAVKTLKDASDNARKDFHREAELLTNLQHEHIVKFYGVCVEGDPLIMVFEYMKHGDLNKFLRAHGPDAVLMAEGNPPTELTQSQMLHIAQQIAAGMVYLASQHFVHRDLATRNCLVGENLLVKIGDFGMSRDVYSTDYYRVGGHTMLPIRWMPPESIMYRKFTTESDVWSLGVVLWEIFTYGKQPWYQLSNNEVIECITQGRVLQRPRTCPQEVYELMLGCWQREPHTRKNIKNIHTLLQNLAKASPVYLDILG

| Sequence | translocation of the BEB [1] | BEB integrity (clearance of FD4 from the apical chamber) [2] | TrkB-FL cleavage and TrkB-ICD formation with Aβ incubation (TrkB-FL [3]) | TrkB-FL cleavage and TrkB-ICD formation with Aβ incubation (TrkB-FL [3]; [5]) | TrkB-FL cleavage and TrkB-ICD formation by m-calpain (TrkB-FL [4]) | TrkB-FL cleavage and TrkB-ICD formation by m-calpain (TrkB-FL [4]; [5]) |
| --- | --- | --- | --- | --- | --- | --- |
| YGRKKRRQRRRKKFGITNSQLKP [TAT-TrkB] | translocated the BEB overtime | without affecting its integrity; also recorded: negligible | – | – | – | – |
| YGRKKRRQRRRPQYFGITNSQLKPDTF [SEQ ID NO: 25, first version of TAT-TrkB without the linker] | – | – | not able to prevent TrkB-FL cleavage | not prevented | not able to prevent TrkB-FL cleavage | not prevented |
